Measured values reported in publication PMC11162810, “Functional redundancy in tRNA dihydrouridylation” (Nucleic Acids Research, 2024).

B1: BsDusB1 (Bacillus subtilis subsp. subtilis str. 168) (protein)
chain: MFKIGDIQLKNRVVLAPMAGVCNSAFRLTVKEFGAGLVCAEMVSDKAILYNNARTMGMLYIDEREKPLSLQIFGGKKETLVEAAKFVDQNTTADIIDINMGCPVPKITKCDAGAKWLLDPDKIYEMVSAVVDAVNKPVTVKMRMGWDEDHIFAVKNAQAVERAGGKAVALHGRTRVQMYEGTANWDIIKEVKQSVSIPVIGNGDVKTPQDAKRMLDETGVDGVMIGRAALGNPWMIYRTVQYLETGKLKEEPQVREKMAVCKLHLDRLIDLKGENVAVREMRKHAAWYLKGVKGNANVRNEINHCETREEFVQLLDAFTVEVEAKELQNAKVG
notes: monomer about 40 kDa; synthetic gene (Eurofins)
B2: BsDusB2 (Bacillus subtilis subsp. subtilis str. 168) (protein)
chain: MTENFWRELPRPFFVLAPMEDVTDVVFRHVVSEAGRPDVFFTEFTNSESYCHPDGKDSVRGRLTFTEDEQPIVAHIWGDKPENFRKMSIGMAELGFKGLDINMGCPVPNVAGNGKGSGLICRPAVAAELIQAAKAGGLPVSVKTRLGYTDVDEWREWLTHILKQDIANLSIHLRTRAEMSKVDAHWELIPEIKKLRDEVAPDTLLTINGDIPDRQTGLKLAEQYGVDGIMIGRGIFTNPFAFEKEPKEHSSKELLDLLRLHLDLHDEYSKEEARPYKPLPRFFKIYLRGFRGASELRNQCMNTKSTDEVRALLDDFERKYLDGIE
notes: monomer about 39 kDa; synthetic gene (Eurofins)

Experiments:
BsDusB2 = target: T1, BsDusB2 (Bacillus subtilis, UniProt O31546); experiment: copurified flavin, UV-visible absorption and fluorescence, SDS release; type: binding; details: non-covalent
T1 construct: gene dus2; monomer about 39 kDa; synthetic gene (Eurofins)
T1 sequence (O31546 1-325): B2 chain

BsDusB1 = target: T2, BsDusB1 (Bacillus subtilis, UniProt P37567); experiment: as above; type: binding; details: non-covalent
T2 construct: gene dus1; monomer about 40 kDa; synthetic gene (Eurofins)
T2 sequence (P37567 1-333): B1 chain

purified protein [1] = substrate: NC(=O)C1=CN([C@@H]2O[C@H](COP(=O)(O)OP(=O)(O)OC[C@H]3O[C@@H](n4cnc5c(N)ncnc54)[C@H](OP(=O)(O)O)[C@@H]3O)[C@@H](O)[C@H]2O)C=CC1; experiment: purified protein; type: biochemical, Bacillus subtilis; details: aerobic (NAD(P)H oxidase, no tRNA mentioned)
purified protein [2] = substrate: NC(=O)C1=CN([C@@H]2O[C@H](COP(=O)(O)OP(=O)(O)OC[C@H]3O[C@@H](n4cnc5c(N)ncnc54)[C@H](O)[C@@H]3O)[C@@H](O)[C@H]2O)C=CC1; experiment: purified protein; type: biochemical, Bacillus subtilis; details: aerobic (NAD(P)H oxidase, no tRNA mentioned)

Molecule	copurified flavin, UV-visible absorption and fluorescence, SDS release (BsDusB2)	copurified flavin, UV-visible absorption and fluorescence, SDS release (BsDusB1)	Km (purified protein [1]) [µM]	kcat (purified protein [1]) [s⁻¹]	kcat/Km (purified protein [1]) [M⁻¹ s⁻¹]	Km (purified protein [2]) [µM]	kcat (purified protein [2]) [s⁻¹]	kcat/Km (purified protein [2]) [M⁻¹ s⁻¹]	Km (purified protein [2]; kcat error missing in the table) [µM]
Cc1cc2nc3c(=O)[nH]c(=O)nc-3n(C[C@H](O)[C@H](O)[C@H](O)COP(=O)(O)O)c2cc1C [FMN]	both BsDusB enzymes are flavoproteins with the FMN non-covalently bound to the apoprotein	both BsDusB enzymes are flavoproteins with the FMN non-covalently bound to the apoprotein							
B1			18 ± 3	0.013 ± 0.002	700	21 ± 4	0.013 ± 0.0014	600	
B2			2.1 ± 0.2	0.7 ± 0.1	300000				22 ± 4
